Experiment [1] deals with C-terminal helical domain-deleted (ΔH-domain) form of CoMsrA (residues 1-144) (Clostridium oremlandii) (UniProt A8MI53). Briefly: native gel or EMSA; native-PAGE; 0.2 mg/ml protein in 10 mM Tris-HCl pH 8.0, 100 mM NaCl; without and with 10 mM DTT.
The target is the same in experiment [2]. Briefly: SEC; gel filtration on Superdex S75 16/60 at the final purification step; 10 mM Tris-HCl pH 8.0, 100 mM NaCl.
Experiment [3] shares this target. The experiment in a line: SEC-MALS; SEC-MALLS; WTC-015S5 column, 20 mM Tris-HCl pH 8.0, 100 mM NaCl, 298 K, 0.5 ml/min; 2.5 mg/ml full-length, 1.5 mg/ml ΔH-domain.
Experiment [4] has the same target. Briefly: SEC; gel filtration on Superdex S75 16/60 at the final purification step; 10 mM Tris-HCl pH 8.0, 100 mM NaCl. The source holds these as a separate data set.

As for “C-terminal helical domain-deleted (ΔH-domain) form of CoMsrA (residues 1-144) (from UniProt A8MI53 1-144) (domain or fragment)”, the stoichiometry N in experiment [1] amounted to 2; in experiment [2], 4; in experiment [3], 2; in experiment [4], 2.
